Source: patent US20240316154A1 (Eli Lilly, published 2024)
Read-outs that look alike come from different tables or passages of the source. One block for each binder: values may come before it.

How the values were obtained:
Dog serum albumin [1] = target: T1, Dog serum albumin (dog, UniProt P49822 25-608); test: SPR, SA on chip, 1:1 fit, 25 C
T1 construct: bought; immobilised on a CM5 chip by amine coupling; also called Dog SA

Cow serum albumin [2] = target: T2, Cow serum albumin (cow, UniProt P02769 25-607); test: SPR, SA on chip, 1:1 fit, 25 C
T2 construct: bought; immobilised on a CM5 chip by amine coupling; also called Cow SA

Rat serum albumin [3] = target: T3, Rat serum albumin (rat, UniProt P02770 25-608); test: SPR, SA on chip, 1:1 fit, 25 C
T3 construct: bought; immobilised on a CM5 chip by amine coupling; also called Rat SA

Pig serum albumin [4] = target: T4, Pig serum albumin (pig, UniProt P08835 25-607); test: SPR, SA on chip, 1:1 fit, 25 C
T4 construct: bought; immobilised on a CM5 chip by amine coupling; also called Pig SA

[5] = target: T5, Cynomolgus monkey serum albumin (cynomolgus monkey, UniProt A2V9Z4 25-608); test: SPR, SA on chip, 1:1 fit, 25 C
T5 construct: bought; immobilised on a CM5 chip by amine coupling; also called Cyno SA

Mouse serum albumin [6] = target: T6, Mouse serum albumin (mouse, UniProt P07724 25-608); test: SPR, SA on chip, 1:1 fit, 25 C
T6 construct: bought; immobilised on a CM5 chip by amine coupling; also called Mouse SA

Human serum albumin [7] = target: T7, Human serum albumin (human, UniProt P02768 25-609); test: SPR, SA on chip, 1:1 fit, 25 C
T7 construct: bought; immobilised on a CM5 chip by amine coupling; also called Human SA

Rabbit serum albumin [8] = target: T8, Rabbit serum albumin (rabbit, UniProt P49065 25-608); test: SPR, SA on chip, 25 C
T8 construct: bought; immobilised on a CM5 chip by amine coupling; also called Rabbit SA

[9] = target: human ErbB4 receptor (NCBI Ref. Seq. No. NP_001036064.1) (human, UniProt Q15303 26-1308); test: cell-based or functional assay
Dog serum albumin [10] = target: T1, Dog serum albumin; test: SPR, SA on chip, 1:1 fit, 25 C; remark: listed apart in the source
Cow serum albumin [11] = target: T2, Cow serum albumin; test: SPR, SA on chip, 1:1 fit, 25 C; remark: listed apart in the source
Rat serum albumin [12] = target: T3, Rat serum albumin; test: SPR, SA on chip, 1:1 fit, 25 C; remark: listed apart in the source
Pig serum albumin [13] = target: T4, Pig serum albumin; test: SPR, SA on chip, 1:1 fit, 25 C; remark: listed apart in the source
[14] = target: T5, Cynomolgus monkey serum albumin; test: SPR, SA on chip, 1:1 fit, 25 C; remark: listed apart in the source
Mouse serum albumin [15] = target: T6, Mouse serum albumin; test: SPR, SA on chip, 1:1 fit, 25 C; remark: listed apart in the source
Human serum albumin [16] = target: T7, Human serum albumin; test: SPR, SA on chip, 1:1 fit, 25 C; remark: listed apart in the source
Rabbit serum albumin [17] = target: T8, Rabbit serum albumin; test: SPR, SA on chip, 25 C; remark: listed apart in the source
Dog serum albumin [18] = target: T1, Dog serum albumin; test: SPR, SA on chip, 1:1 fit, 25 C; remark: listed apart in the source
Cow serum albumin [19] = target: T2, Cow serum albumin; test: SPR, SA on chip, 1:1 fit, 25 C; remark: listed apart in the source
Rat serum albumin [20] = target: T3, Rat serum albumin; test: SPR, SA on chip, 1:1 fit, 25 C; remark: listed apart in the source
Pig serum albumin [21] = target: T4, Pig serum albumin; test: SPR, SA on chip, 1:1 fit, 25 C; remark: listed apart in the source
[22] = target: T5, Cynomolgus monkey serum albumin; test: SPR, SA on chip, 1:1 fit, 25 C; remark: listed apart in the source
Mouse serum albumin [23] = target: T6, Mouse serum albumin; test: SPR, SA on chip, 1:1 fit, 25 C; remark: listed apart in the source
Human serum albumin [24] = target: T7, Human serum albumin; test: SPR, SA on chip, 1:1 fit, 25 C; remark: listed apart in the source
[25] = target: T9, human CNTF receptor (CNTFR) on IMR-32 cells (human, UniProt P26992 23-342); test: cell-based or functional assay
T9 sequence (looked up): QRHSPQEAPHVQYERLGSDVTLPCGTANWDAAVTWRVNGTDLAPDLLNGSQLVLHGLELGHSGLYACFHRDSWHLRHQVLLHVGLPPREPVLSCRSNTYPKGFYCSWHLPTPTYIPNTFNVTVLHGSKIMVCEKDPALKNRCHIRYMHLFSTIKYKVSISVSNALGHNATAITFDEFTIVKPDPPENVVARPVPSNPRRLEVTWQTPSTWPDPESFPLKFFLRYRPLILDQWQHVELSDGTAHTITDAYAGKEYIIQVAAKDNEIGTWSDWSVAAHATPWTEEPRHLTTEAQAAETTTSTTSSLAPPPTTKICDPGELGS

Rabbit serum albumin [26] = target: T8, Rabbit serum albumin; test: SPR, SA on chip, 25 C; remark: listed apart in the source
Rabbit serum albumin [27] = target: T8, Rabbit serum albumin; test: SPR, SA on chip, 25 C; remark: listed apart in the source
Dog serum albumin [28] = target: T1, Dog serum albumin; test: SPR, SA on chip, 1:1 fit, 25 C; remark: listed apart in the source
Cow serum albumin [29] = target: T2, Cow serum albumin; test: SPR, SA on chip, 1:1 fit, 25 C; remark: listed apart in the source
Rat serum albumin [30] = target: T3, Rat serum albumin; test: SPR, SA on chip, 1:1 fit, 25 C; remark: listed apart in the source
Pig serum albumin [31] = target: T4, Pig serum albumin; test: SPR, SA on chip, 1:1 fit, 25 C; remark: listed apart in the source
[32] = target: T5, Cynomolgus monkey serum albumin; test: SPR, SA on chip, 1:1 fit, 25 C; remark: listed apart in the source
Mouse serum albumin [33] = target: T6, Mouse serum albumin; test: SPR, SA on chip, 1:1 fit, 25 C; remark: listed apart in the source
Human serum albumin [34] = target: T7, Human serum albumin; test: SPR, SA on chip, 1:1 fit, 25 C; remark: listed apart in the source

Kd (Dog serum albumin [1]): 19 nM
koff (Dog serum albumin [1]): 0.0032 s⁻¹
kon (Dog serum albumin [1]): 170000 M⁻¹ s⁻¹
Kd (Cow serum albumin [2]): 470 nM
koff (Cow serum albumin [2]): 0.072 s⁻¹
kon (Cow serum albumin [2]): 160000 M⁻¹ s⁻¹
Kd (Rat serum albumin [3]): 52 nM
koff (Rat serum albumin [3]): 0.006 s⁻¹
kon (Rat serum albumin [3]): 120000 M⁻¹ s⁻¹
Kd (Pig serum albumin [4]): 130 nM
koff (Pig serum albumin [4]): 0.012 s⁻¹
kon (Pig serum albumin [4]): 93000 M⁻¹ s⁻¹
Kd [5]: 6.1 nM
koff [5]: 0.00087 s⁻¹
kon [5]: 140000 M⁻¹ s⁻¹
Kd (Mouse serum albumin [6]): 62 nM
koff (Mouse serum albumin [6]): 0.0088 s⁻¹
kon (Mouse serum albumin [6]): 140000 M⁻¹ s⁻¹
Kd (Human serum albumin [7]): 1.9 nM
koff (Human serum albumin [7]): 0.00023 s⁻¹
kon (Human serum albumin [7]): 120000 M⁻¹ s⁻¹
binding result (Rabbit serum albumin [8]): no binding (tested: up to 1000 nM)
EC50 (ng/mL), PathHunter ErbB4/ErbB4 dimerization assay [9]: 33.5 ng/mL
B1: VHH-based fusion of Example 3, VHH fusion 3 (NRG1-(G4Q)5-MC6.1C22.43) (other)
chain: SHLVKCAEKEKTFCVNGGECFMVKDLSNPSRYLCKCPNEFTGDRCQNYVMASFYKHLGIEFMEAEELYQGGGGQGGGGQGGGGQGGGGQGGGGQEVQLLESGGGLVQPGGSLRLSCAASGRYIDETAVAWFRQAPGKEREFVAGIGGGVDITYYADSVKGRFTISRDNSKNTLYLQMNSLRPEDTAVYYCAARPGRPLITSKVADLYPYWGQGTLVTVSSPP
notes: also called Compound 3; NRG1-VHH fusion

Kd (Dog serum albumin [10]): 2.2 nM
koff (Dog serum albumin [10]): 0.0017 s⁻¹
kon (Dog serum albumin [10]): 780000 M⁻¹ s⁻¹
Kd (Cow serum albumin [11]): 100 nM
koff (Cow serum albumin [11]): 0.058 s⁻¹
kon (Cow serum albumin [11]): 570000 M⁻¹ s⁻¹
Kd (Rat serum albumin [12]): 3.1 nM
koff (Rat serum albumin [12]): 0.003 s⁻¹
kon (Rat serum albumin [12]): 970000 M⁻¹ s⁻¹
Kd (Pig serum albumin [13]): 15 nM
koff (Pig serum albumin [13]): 0.006 s⁻¹
kon (Pig serum albumin [13]): 400000 M⁻¹ s⁻¹
Kd [14]: 0.94 nM
koff [14]: 0.00063 s⁻¹
kon [14]: 680000 M⁻¹ s⁻¹
Kd (Mouse serum albumin [15]): 6.4 nM
koff (Mouse serum albumin [15]): 0.0042 s⁻¹
kon (Mouse serum albumin [15]): 660000 M⁻¹ s⁻¹
Kd (Human serum albumin [16]): 0.19 nM
koff (Human serum albumin [16]): 0.00019 s⁻¹
kon (Human serum albumin [16]): 1e+06 M⁻¹ s⁻¹
binding result (Rabbit serum albumin [17]): no binding (tested: up to 1000 nM)
EC50 (ng/mL), PathHunter ErbB4/ErbB4 dimerization assay [9]: 112 ng/mL
B2: VHH-based fusion of Example 4, VHH fusion 4 (MC6.1C22-(G4Q)5-NRG1) (other)
chain: EVQLLESGGGLVQPGGSLRLSCAASGRYIDETAVAWFRQAPGKEREFVAGIGGGVDITYYADSVKGRFTISRDNSKNTLYLQMNSLRPEDTAVYYCAARPGRPLITSKVADLYPYWGQGTLVTVSSGGGGQGGGGQGGGGQGGGGQGGGGQSHLVKCAEKEKTFCVNGGECFMVKDLSNPSRYLCKCPNEFTGDRCQNYVMASFYKHLGIEFMEAEELYQ
notes: also called Compound 4; VHH-NRG1 fusion

Kd (Dog serum albumin [18]): 3.7 nM
koff (Dog serum albumin [18]): 0.0017 s⁻¹
kon (Dog serum albumin [18]): 460000 M⁻¹ s⁻¹
Kd (Cow serum albumin [19]): 110 nM
koff (Cow serum albumin [19]): 0.052 s⁻¹
kon (Cow serum albumin [19]): 460000 M⁻¹ s⁻¹
Kd (Rat serum albumin [20]): 6.1 nM
koff (Rat serum albumin [20]): 0.003 s⁻¹
kon (Rat serum albumin [20]): 490000 M⁻¹ s⁻¹
Kd (Pig serum albumin [21]): 19 nM
koff (Pig serum albumin [21]): 0.0057 s⁻¹
kon (Pig serum albumin [21]): 300000 M⁻¹ s⁻¹
Kd [22]: 1.2 nM
koff [22]: 0.0006 s⁻¹
kon [22]: 500000 M⁻¹ s⁻¹
Kd (Mouse serum albumin [23]): 8.8 nM
koff (Mouse serum albumin [23]): 0.0042 s⁻¹
kon (Mouse serum albumin [23]): 480000 M⁻¹ s⁻¹
Kd (Human serum albumin [24]): 0.58 nM
koff (Human serum albumin [24]): 0.00025 s⁻¹
kon (Human serum albumin [24]): 430000 M⁻¹ s⁻¹
hCNTFR EC50 pM GeoMean (pSTAT3 in IMR-32 cells) [25]: 8.39 pM
binding result (Rabbit serum albumin [26]): no binding (tested: up to 1000 nM)
B3: VHH-based fusion of Example 2, VHH fusion 2 (MC6.1C22-(G4Q)5-CNTF) (other)
chain: EVQLLESGGGLVQPGGSLRLSCAASGRYIDETAVAWFRQAPGKEREFVAGIGGGVDITYYADSVKGRFTISRDNSKNTLYLQMNSLRPEDTAVYYCAARPGRPLITSKVADLYPYWGQGTLVTVSSGGGGQGGGGQGGGGQGGGGQGGGGQMAFTEHSPLTPHRRDLASRSIWLARKIRSDLTALTESYVKHQGLNKNINLDSADGMPVASTDRWSELTEAERLQENLQAYRTFHVLLARLLEDQQVHFTPTEGDFHQAIHTLLLQVAAFAYQIEELMILLEYKIPRNEADGMPINVGDGGLFEKKLWGLKVLQELSQWTVRSIHDLRFISSHQTG
notes: also called Compound 2; VHH-CNTF fusion

binding result (Rabbit serum albumin [27]): no binding (tested: up to 1000 nM)
Kd (Dog serum albumin [28]): 40 nM
koff (Dog serum albumin [28]): 0.0032 s⁻¹
kon (Dog serum albumin [28]): 79000 M⁻¹ s⁻¹
Kd (Cow serum albumin [29]): 820 nM
koff (Cow serum albumin [29]): 0.074 s⁻¹
kon (Cow serum albumin [29]): 91000 M⁻¹ s⁻¹
Kd (Rat serum albumin [30]): 83 nM
koff (Rat serum albumin [30]): 0.0063 s⁻¹
kon (Rat serum albumin [30]): 75000 M⁻¹ s⁻¹
Kd (Pig serum albumin [31]): 190 nM
koff (Pig serum albumin [31]): 0.011 s⁻¹
kon (Pig serum albumin [31]): 58000 M⁻¹ s⁻¹
Kd [32]: 13 nM
koff [32]: 0.00086 s⁻¹
kon [32]: 68000 M⁻¹ s⁻¹
Kd (Mouse serum albumin [33]): 100 nM
koff (Mouse serum albumin [33]): 0.0082 s⁻¹
kon (Mouse serum albumin [33]): 81000 M⁻¹ s⁻¹
Kd (Human serum albumin [34]): 3.2 nM
koff (Human serum albumin [34]): 0.00024 s⁻¹
kon (Human serum albumin [34]): 76000 M⁻¹ s⁻¹
hCNTFR EC50 pM GeoMean (pSTAT3 in IMR-32 cells) [25]: 7.09 pM
B4: VHH-based fusion of Example 1, VHH fusion 1 (CNTF-(G4Q)5-MC6.1C22.43) (other)
chain: MAFTEHSPLTPHRRDLASRSIWLARKIRSDLTALTESYVKHQGLNKNINLDSADGMPVASTDRWSELTEAERLQENLQAYRTFHVLLARLLEDQQVHFTPTEGDFHQAIHTLLLQVAAFAYQIEELMILLEYKIPRNEADGMPINVGDGGLFEKKLWGLKVLQELSQWTVRSIHDLRFISSHQTGGGGGQGGGGQGGGGQGGGGQGGGGQEVQLLESGGGLVQPGGSLRLSCAASGRYIDETAVAWFRQAPGKEREFVAGIGGGVDITYYADSVKGRFTISRDNSKNTLYLQMNSLRPEDTAVYYCAARPGRPLITSKVADLYPYWGQGTLVTVSSPP
notes: also called Compound 1; CNTF-VHH fusion
